Laboratory results from US20060233708A1.
Several values for one entry are separate records, joined by “and”; a condition that tells them apart may be missing. Identical values can stand only once. One block for each molecule: values may come before it. Ends that are not written are not given here.

What was measured:
[1] = molecular target: TGF-β receptors in mink lung epithelial cells
[2] = molecular target: TGF-β receptors in mink lung epithelial cells; test: competition with 125I-TGF-β1 for binding to mink lung epithelial cells
[3] = molecular target: TGF-β receptors in mink lung epithelial cells; test: specific binding of 0.1 nM 125I-TGF-β1 to mink lung epithelial cells
[4] = molecular target: TGF-β receptors in mink lung epithelial cells; test: specific binding of 125I-TGF-β1 to mink lung epithelial cells without peptide
[5] = molecular target: type I TGF-β receptor (mink); test: inhibition of 125I-TGF-β1 affinity labeling of receptors on mink lung epithelial cells
[6] = molecular target: type V TGF-β receptor (mink); test: as above
[7] = molecular target: type III TGF-β receptor (mink); test: as above
[8] = molecular target: type II TGF-β receptor (mink); test: as above
[9] = molecular target: TGF-β receptors in mink lung epithelial cells; test: competition with 125I-TGF-β1 for binding to mink lung epithelial cells; remark: listed apart in the source
[10] = molecular target: TGF-β receptors in mink lung epithelial cells; test: competition with 125I-TGF-β2 for binding to mink lung epithelial cells
[11] = molecular target: TGF-β receptors in mink lung epithelial cells; test: competition with 125I-TGF-β3 for binding to mink lung epithelial cells
[12] = molecular target: TGF-β receptors in mink lung epithelial cells; test: specific binding of 125I-TGF-β2 to mink lung epithelial cells without peptide
[13] = molecular target: TGF-β receptors in mink lung epithelial cells; test: specific binding of 125I-TGF-β3 to mink lung epithelial cells without peptide

Molecule: ANFCLGPCPYIWSLDTQYSKVLALY (not fully specified; cysteine pairing not given here) [peptide β1^25 (41-65)]
- percent inhibition of ^125I-TGF-β1-affinity labeling at 2.3 µM [5]: 30 to 40%
- concentration at which ^125I-TGF-β1-affinity labeling was almost completely abolished [6]: 2.3 µM
- percent inhibition of ^125I-TGF-β1-affinity labeling at 2.3 µM [7]: 30 to 40%
- percent inhibition of ^125I-TGF-β1-affinity labeling at 2.3 µM [8]: 30 to 40%
- IC50 [9]: 1000 nM and 2000 nM
- concentration of complete inhibition of ^125I-TGF-β1 binding [9]: 34 µM
- IC50 [10]: 1000 nM and 2000 nM
- IC50 [11]: 60 to 80 nM

Molecule: ANFCAGACPYLWSSDTQHSRVLSLY (not fully specified; cysteine pairing not given here) [peptide β2^25 (41-65)]
- IC50 [9]: 1000 nM and 2000 nM
- IC50 [10]: 1000 nM and 2000 nM
- IC50 [11]: 80 nM

Molecule: PYLWASDTQH [peptide β2^10 (49-58) S53A]
- IC50 [9]: 40000 nM

Molecule: PYIWSLDTQY [peptide β1^10 (49-58)]
- IC50 [9]: 40000 to 70000 nM

Molecule: ANFCSGPCPYLRSADTTHSTVLGLY (not fully specified; cysteine pairing not given here) [peptide β3^25 (41-65)]
- IC50 [9]: 20000 nM
- IC50 [10]: 20000 nM
- IC50 [11]: 60 to 80 nM

Molecule: PYLWSSDTQH [peptide β2^10 (49-58)]
- IC50 [9]: 40000 to 70000 nM

Continued, values first:

- ED50 of growth inhibition as measured by DNA synthesis in mink lung epithelial cells [1]: 100 nM
- IC50 [2]: 60 nM
- fold lower IC50 than peptide β1^25 (41-65) prior to conjugation [2]: 20 fold
Molecule: peptide β1^25 (41-65)-bovine serum albumin (BSA) conjugate (from UniProt P02769)

- ED50 of growth inhibition as measured by DNA synthesis in mink lung epithelial cells [1]: 100 nM
- IC50 [2]: 50 nM
- fold lower IC50 than peptide β1^25 (41-65) prior to conjugation [2]: 20 fold
Molecule: peptide β1^25 (41-65)-carbonic anhydrase (CA) conjugate (from UniProt P00915)

- specific binding without peptides [3]: 3670 cpm/well
- specific binding (0% inhibition) [4]: 3930 cpm/well
Molecule: TGF-β1 (ligand)

- specific binding (0% inhibition) [12]: 4510 cpm/well
B1: TGF-β2 (ligand)
chain: ALDAAYCFRNVQDNCCLRPLYIDFKRDLGWKWIHEPKGYNANFCAGACPYLWSSDTQHSRVLSLYNTINPEASASPCCVSQDLEPLTILYYIGKTPKIEQLSNMIVKSCKCS
modifications: ^125I-labelled (iodination with Na^125I)

- specific binding (0% inhibition) [13]: 4220 cpm/well
B2: TGF-β3 (ligand)
chain: ALDTNYCFRNLEENCCVRPLYIDFRQDLGWKWVHEPKGYYANFCSGPCPYLRSADTTHSTVLGLYNTLNPEASASPCCVPQDLEPLTILYYVGRTPKVEQLSNMVVKSCKCS
modifications: ^125I-labelled (iodination with Na^125I)
